For this test, the target named is T1, IL-6/sIL-6R complex (human, UniProt P05231 30-212; P08887 20-355, limits assumed).
T1 construct: Complex of IL-6 and soluble IL-6R; also called IL-6/sIL-6R trans-signalling complex
Put plainly: method not stated; value given in Example 4 and used to calculate occupancy.

Data on one molecule can be found in patent publication US20220135652A1 (FERRING B V, published 2022).

B1: Peptide 1 (the polypeptide of SEQ ID NO: 1 in its active dimerized form) (Fc fusion)
chain: ELLDPCGYISPESPVVQLHSNFTAVCVLKEKCMDYFHVNANYIVWKTNHFTIPKEQYTIINRTASSVTFTDIASLNIQLTCNILTFGQLEQNVYGITIISGLPPEKPKNLSCIVNEGKKMRCEWDGGRETHLETNFTLKSEWATHKFADCKAKRDTPTSCTVDYSTVYFVNIEVWVEAENALGKVTSDHINFDPVYKVKPNPPHNLSVINSEELSSILKLTWTNPSIKSVIILKYNIQYRTKDASTWSQIPPEDTASTRSSFTVQDLKPFTEYVFRIRCMKEDGKGYWSDWSEEASGITYEDRPSKAPSFWYKIDPSHTQGYRTVQLVWKTLPPFEANGKILDYEVTLTRWKSHLQNYTVNATKLTVNLTNDRYLATLTVRNLVGKSDAAVLTIPACDFQATHPVMDLKAFPKDNMLWVEWTTPRESVKKYILEWCVLSDKAPCITDWQQEDGTVHRTYLRGNLAESKCYLITVTPVYADGPGSPESIKAYLKQAPPSKGPTVRTKKVGKNEAVLEWDQLPVDVQNGFIRNYTIFYRTIIGNETAVNVDSSHTEYTLSSLTSDTLYMVRMAAYTDEGGKDGPEFTFTTPKFAQGEDKTHTCPPCPAPEAEGAPSVFLFPPKPKDTLMISRTPEVTCVVVDVSHEDPEVKFNWYVDGVEVHNAKTKPREEQYNSTYRVVSVLTVLHQDWLNGKEYKCKVSNKALPAPIEKTISKAKGQPREPQVYTLPPSREEMTKNQVSLTCLVKGFYPSDIAVEWESNGQPENNYKTTPPVLDSDGSFFLYSKLTVDKSRWQQGNVFSCSVMHEALHNHYTQKSLSLSPGK
notes: Produced in CHO/dhfr- cells; 10 N-glycosylation sites per chain; also called gp130-Fc fusion dimer
A word on the Kd: it is the free concentration of one partner at which half of the binding sites on the other are occupied at equilibrium, for simple one-to-one binding. Take B1: the equilibrium dissociation constant (Kd) is 0.13 nM.
